Reference: US20240016949A1 (SHANGHAI FUDAN ZHANGJIANG BIO PHARMACEUTICAL, published 2024)

T1: FcγRIIa (CD32a) (UniProt P12318 34-317, limits assumed)
T1 sequence (looked up): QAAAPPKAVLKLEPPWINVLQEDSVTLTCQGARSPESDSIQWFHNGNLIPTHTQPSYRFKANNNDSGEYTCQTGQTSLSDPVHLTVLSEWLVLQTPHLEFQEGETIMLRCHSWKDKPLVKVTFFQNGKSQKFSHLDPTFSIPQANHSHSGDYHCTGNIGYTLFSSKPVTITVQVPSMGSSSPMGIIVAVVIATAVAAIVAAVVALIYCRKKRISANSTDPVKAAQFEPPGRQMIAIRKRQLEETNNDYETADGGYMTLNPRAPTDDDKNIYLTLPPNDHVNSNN


Target: T1, FcγRIIa (CD32a)
Experiment: cell-based or functional assay

Binder | IC50 value (nM), killing activity on HSC Cell | IC50 value (nM), killing activity on K562 Cell
antibody-drug conjugate FDA028-LE14 (antibody, human IgG1, kappa, LE14 linker-drug as thioether on cysteines of reduced interchain disulfides; DAR 7.63 for the whole antibody) light: not shown heavy: QVQLQQWGAGLLKPSETLSLTCAVYGGSFSGYYWSWIRQPPGKGLEWIGEINHSGSTNYNPSLKSRVTISVETSKNQFSLKLSSVTAADTAVYYCARDKWTWYFDLWGRGTLVTVSSASTKGPSVFPLAPSSKSTSGGTAALGCLVKDYFPEPVTVSWNSGALTSGVHTFPAVLQSSGLYSLSSVVTVPSSSLGTQTYICNVNHKPSNTKVDKKVEPKSCDKTHTCPPCPAPPVAGGPSVFLFPPKPKDTLMISRTPEVTCVVVDVSHEDPEVKFNWYVDGVEVHNAKTKPREEQYNSTYRVVSVLTVLHQDWLNGKEYKCKVSNKALPAPIEKTISKAKGQPREPQVYTLPPSREEMTKNQVSLTCLVKGFYPSDIAVEWESNGQPENNYKTTPPVLDSDGSFFLYSKLTVDKSRWQQGNVFSCSVMHEALHNHYTQKSLSLSPGK | 334 nM | 270 nM
antibody-drug conjugate FDA029-LE14 (antibody, human IgG1, kappa, LE14 linker-drug as thioether on cysteines of reduced interchain disulfides; DAR 7.82 for the whole antibody) light: not shown heavy: QVQLQQWGAGLLKPSETLSLTCAVYGGSFSGYYWSWIRQPPGKGLEWIGEINHSGSTNYNPSLKSRVTISVETSKNQFSLKLSSVTAADTAVYYCARDKWTWYFDLWGRGTLVTVSSASTKGPSVFPLAPSSKSTSGGTAALGCLVKDYFPEPVTVSWNSGALTSGVHTFPAVLQSSGLYSLSSVVTVPSSSLGTQTYICNVNHKPSNTKVDKKVEPKSCDKTHTCPPCPAPEFEGGPSVFLFPPKPKDTLMISRTPEVTCVVVDVSHEDPEVKFNWYVDGVEVHNAKTKPREEQYNSTYRVVSVLTVLHQDWLNGKEYKCKVSNKALPASIEKTISKAKGQPREPQVYTLPPSREEMTKNQVSLTCLVKGFYPSDIAVEWESNGQPENNYKTTPPVLDSDGSFFLYSKLTVDKSRWQQGNVFSCSVMHEALHNHYTQKSLSLSPGK | 363 nM | 323 nM
